# According to US20250027068:
# Target: pooled human IgG
Protein,Enzyme Activity Endpoint Assay: Fab′2,Enzyme Activity Endpoint Assay: Fc,Enzyme Activity Endpoint Assay: IgG,Enzyme Activity Endpoint Assay: scIgG,Enzyme Activity Endpoint Assay (purified): Fab'2,Enzyme Activity Endpoint Assay (purified): Fc,Enzyme Activity Endpoint Assay (purified): IgG,Enzyme Activity Endpoint Assay (purified): scIgG
PRT-20 (protein) MANQEIRYSEATPYHITSVWTKGVTPPANFTQGEDVFHAPYVPNQGWYDITKTFNGKDDLLCGAATAGNMLHWWFDQNKDQIERYLKEHPEKQKINFNGEQMFDVKEAIDTKDSQTDSKLFNYFKEKAFPYLSTKHLGVFPDHVLDMFINGYRLSLTNHGPTPVKEQSKDPRGGIFDAVFTRGDQSTLLTSRHDFKEKTLKEISDLIKKELQEGKALGISHTYANVRINHVINLWGADFNSEGNLEAIYVTDSDSNASIGMKKYYVGVNSAGKVAISAKEIEDDNIGAQVLGLFTLSTGKDIWEQTN,48 ng/µL,124 ng/µL,15 ng/µL,13 ng/µL,,,,
PRT-227 (protein) MEVVEVWPYGQNPNGKTEILSQTEDSESLQRLRDIEDFQAEKKMQNVVYTKWLDGVDVKDHDFRKIVDGNIAYYATPLLNGRGFYDINKDFNRDSDKCAAAVAANMFHYWLDINRDNVDRFLRQNPEKHGIIELPDGQLKLSDFLNTYESDHGYRDKSKLFDFISNNFNGPVWTDKLLDNYINGYAYNYKYGRTIEDPTKNTSKINFFKEVFNEKILTNNHSIRNQNEFSVLLSEALYTGKAIGLSYGPAGLRHSLGHIISVWGADLDADGNVVAIYVTDSDDKKLTIGDERVGLKRYKISTDDENRLRLTAYEETHNTGGQIRGLYTLDTGKYAWADYFDKTEQTGTDQAEQLEHHHHHH,,,,,22 ng/µL,331 ng/µL,880 ng/µL,492 ng/µL
PRT-228 (protein) MEVVEVWPYGQNPNGKTEILSQTEDSESLQRLRDIEDFQAEKKMQNVVYTKWLDGVDVKDHDFRKIVDGNIAYYATPLLNGRGFYDINKDFNRDSDKCAAAVAANMFHYWLDINRDNVDRFLRQNPEKHGIIELPDGQLKLSDFLNTYESDHGYRDKSKLFDFISNNFNGPVWTDKLLDNYINGYAYNYKYGRTIEDPTKNTSKINFFKEVFNEKILTNNHSIRNQNEFSDLLSEALYTGKAIGLSYGPAGLRHSLGHIISVWGADLDADGNVVAIYVTDSDDKKLTIGDERVGLKRYKISTDDENRLRLTAYEETHNTGGQIRGLWTLDTGKYAWADYFDKTEQTGTDQAEQLEHHHHHH,,,,,195 ng/µL,583 ng/µL,767 ng/µL,557 ng/µL
PRT-21 (protein) MANQEIRYSEVSPSTVTSVWTKGVTPPTNFTYGEDVLHAPYVANQGWYDITKTFNGKDDLLCGAATAGNMLHWWFDQNKEQIENYLKKHPEKQKINFNGEQMFDVKEAIDTKDSQLDSKLFEYFKEKAFPYLSTKHLGVFPDHVIDMFINGYRLSLTNHGPTPVKRGSKDPRGGIFDAVFTRGDQSKLLTNRHDFKEKTLKEISDLIKQELTEGKALGISHTYANVRINHVINLWGADFDAEGNLEAIYVTDSDSNASIGMKKYFVGVNSNGKVAISAKEIEEDNIGAQVLGLFTLSTGQDIWNQTN,33 ng/µL,111 ng/µL,23 ng/µL,28 ng/µL,,,,
PRT-229 (protein) MEVVEVWPYGQNPNGKTEILSQTEDSESLQRLRDIEDFQAEKKKQNVVYTKWLDGVDVKDHDFRKIVDGNIAYYATPLLNGRGFYDINKDFNRDSDKCAAAVAANMFHYWLDINRDNVDRFLRQNPEKHGIIELPDGQLKLSDFLNTYESDHGYRDKSKLFDFISNNFNGPVWTDKLLDNYINGYAYNYKYGRTIEDPTKNTSKINFFKEVFNEKILTNNHSIRNQNEFSVLLSEALYTGKAIGLSYGPAGLRHSLGHIISVWGADLDADGNVVAIYVTDSDDKKLTIGDERVGLKRYKISTDDENRLRLTAYEETHNTGGQIRGLWTLDTGKYAWADYFDKTEQTGTDQAEQLEHHHHHH,,,,,691 ng/µL,243 ng/µL,1270 ng/µL,294 ng/µL
PRT-230 (protein) MEVVEVWPYGQNPNGKTEILSQTEDSESLQRLRDIEDFQAEKKMQNVVYTKWLDGVDVKDHDFRKIVDGNIAYYATPLLNGRGFYDINKDFNRDSDKCAAAVAANMFHYWLDINRDNVDRFLRQNPEKHGIIELPDGQLKLSDFLNTYESDNGYRDKSKLFDFISNNFNGPVWTDKLLDNYINGYAYNYKYGRTIEDPTKNTSKINFFKEVFNEKILTNNHSIRNQNEFSVLLSEALYTGKAIGLSYGPAGLRHSLGHIISVWGADLDADGNVVAIYVTDSDDKKLTIGDERVGLKRYKISTDDENRLRLTAYEETHNTGGQIRGLWTLDTGKYAWADYFDKTEQTGTDQAEQLEHHHHHH,,,,,699 ng/µL,454 ng/µL,513 ng/µL,396 ng/µL
PRT-231 (protein) MEVVEVWPYGQNPNGKTEILSQTEDSESLQRLRDIEDFQAEKKMQNVVYTKWLDGVDVKDHDFRKIVDGNIAYYATPLLNGRGFYDINKDFNRDSDKCAAAVAANMFHYWLDINRDNVDRFLRQNPEKHGIIELPDGQLKLSDFLNTYESDHGYRDKSKLFDFISNNFNGPVWTDKLLDNYINGYAYNYKYGRTIEDPTKNTSKINFFKEVFNEKILTNNHSIRNQNEFSVLLSEALYTGKAIGLSYGPAGLRHSLGHIISVWGADLDADGNVVAIYVTDSDDKKLTIGDERVGLKRYKISTDDENRARLTAYEETHNTGGQIRGLWTLDTGKYAWADYFDKTEQTGTDQAEQLEHHHHHH,,,,,176 ng/µL,388 ng/µL,465 ng/µL,313 ng/µL
PRT-232 (protein) MEVVEVWPYGQNPNGKTEILSQTEDSESLQRLRDIEDFQAEKKMQNVVYTKWLDGVDVKDHDFRKIVDGNIAYYATPLLNGRGFYDINKDFNRDSDKCAAAVAANMFHYWLDINRDNVDRFLRQNPEKHGIIELPDGQLKLSDFLNTYESDHGYRDKSKLFDFISNNFNGPVWTDKLLDNYINGYAYNYKYGRTIEDPTKNTSKINFFKEVFNEKILTNNHSIRNQNEFSVLLSEALYTGKAIGLSYGPAGLRHSLGHIISVWGADLDADGNVVAIYVTDSDDKKLTIGDERVGLKRYKISTDDENRLRLTAYEETHNTGGQIRGLWTLDTGKEAWADYFDKTEQTGTDQAEQLEHHHHHH,,,,,40 ng/µL,283 ng/µL,624 ng/µL,393 ng/µL
PRT-233 (protein) MEVVEVWPYGQNPNGKTEILSQTEDSESLQRLRDIEDFQAEKKMQNVVYTKWLDGVDVKDHDFRKIVDGNIAYYATPLLNGRGFYDINKDFNRDSDKCAAAVAANMFHYWLDRNRDNVDRFLRQNPEKHGIIELPDGQLKLSDFLNTYESDHGYRDKSKLFDFISNNFNGPVWTDKLLDNYINGYAYNYKYGRTIEDPTKNTSKINFFKEVFNEKILTNNHSIRNQNEFSVLLSEALYTGKAIGLSYGPAGLRHSLGHIISVWGADLDADGNVVAIYVTDSDDKKLTIGDERVGLKRYKISTDDENRLRLTAYEETHNTGGQIRGLWTLDTGKYAWADYFDKTEQTGTDQAEQLEHHHHHH,,,,,94 ng/µL,376 ng/µL,596 ng/µL,415 ng/µL
PRT-234 (protein) MEVVEVWPYGQNPNGKTEILSQTEDSESLQRLRDIEDFQAEKKMQNVVYTKWLDGVDVKDHDFRKIVDGNIAYYATPLLNGRGFYDINKDFNRDSDKCAAAVAANMFHYWLDINRDNVDRFLRQNPEKHGIIELPDGQLKLSDFLNTYESDDGYRDKSKLFDFISNNFNGPVWTDKLLDNYINGYAYNYKYGRTIEDPTKNTSKINFFKEVFNEKILTNNHSIRNQNEFSVLLSEALYTGKAIGLSYGPAGLRHSLGHIISVWGADLDADGNVVAIYVTDSDDKKLTIGDERVGLKRYKISTDDENRLRLTAYEETHNTGGQIRGLWTLDTGKYAWADYFDKTEQTGTDQAEQLEHHHHHH,,,,,88 ng/µL,376 ng/µL,640 ng/µL,432 ng/µL
PRT-235 (protein) MEVVEVWPYGQNPNGKTEILSQTEDSESLQRLRDIEDFQAEKKMQNVVYTKWLDGVDVKDHDFRKIVDGNIAYYATPLLNGRGFYDINKDFNRDSDKCAAAVAANMFHYWLDINRDNVDRFLRQNPEKHGIIELPDGQLKLSDFLNTYESDHGYRDKSKLFDFISNNFNGPVWTDKLLDNYINGYAYNYKYGRTIEDPTKNTSKINFFKEVFNEKILTNNHSIRNQNEFSVLLSEALYTGKAIGLSYGPAGLRHSLGHIISVWGADLDADGNVVAIYVTDSDDKKLTIGDERVGLKRYKISTDDENRLRLTAYEETDNTGGQIRGLWTLDTGKYAWADYFDKTEQTGTDQAEQLEHHHHHH,,,,,116 ng/µL,448 ng/µL,711 ng/µL,483 ng/µL
PRT-236 (protein) MEVVEVWPYGQNPNGKTEILSQTEDSESLQRLRDIEDFQAEKKMQNVVYTKWLDGVDVDDHDFRKIVDGNIAYYATPLLNGRGFYDINKDFNRDSDKCAAAVAANMFHYWLDINRDNVDRFLRQNPEKHGIIELPDGQLKLSDFLNTYESDHGYRDKSKLFDFISNNFNGPVWTDKLLDNYINGYAYNYKYGRTIEDPTKNTSKINFFKEVFNEKILTNNHSIRNQNEFSVLLSEALYTGKAIGLSYGPAGLRHSLGHIISVWGADLDADGNVVAIYVTDSDDKKLTIGDERVGLKRYKISTDDENRLRLTAYEETHNTGGQIRGLWTLDTGKYAWADYFDKTEQTGTDQAEQLEHHHHHH,,,,,294 ng/µL,615 ng/µL,594 ng/µL,472 ng/µL
PRT-237 (protein) MEVVEVWPYGQNPNGKTEILSQTEDSESLQRLRDIEDFQAEKKMQNVVYTKWLDGVDVKDHDFRKIVDGNIEYYATPLLNGRGFYDINKDFNRDSDKCAAAVAANMFHYWLDINRDNVDRFLRQNPEKHGIIELPDGQLKLSDFLNTYESDHGYRDKSKLFDFISNNFNGPVWTDKLLDNYINGYAYNYKYGRTIEDPTKNTSKINFFKEVFNEKILTNNHSIRNQNEFSVLLSEALYTGKAIGLSYGPAGLRHSLGHIISVWGADLDADGNVVAIYVTDSDDKKLTIGDERVGLKRYKISTDDENRLRLTAYEETHNTGGQIRGLWTLDTGKYAWADYFDKTEQTGTDQAEQLEHHHHHH,,,,,828 ng/µL,415 ng/µL,685 ng/µL,461 ng/µL
